Measurements as given in patent US20240010687A1 (University of Washington, published 2024).

Experiments:
[1] = molecular target: T1, 119RC4_20_Axle (D8-C4); test: stoichiometric mixing of separately purified axle and ring, then SEC, SAXS and EM
T1 construct: D8 homo-16-meric axle; two C4 rings assemble around one axle; also called D8 axle; D8A_1615
T1 chain: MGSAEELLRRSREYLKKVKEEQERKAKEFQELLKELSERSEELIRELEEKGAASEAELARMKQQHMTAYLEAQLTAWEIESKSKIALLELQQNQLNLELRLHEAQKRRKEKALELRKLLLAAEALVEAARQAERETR

[2] = molecular target: T2, C8D8_6_49_119RC4_20_Axle (C8-C4); test: SEC, SAXS, biolayer interferometry binding kinetics and negative stain EM
T2 construct: C8 homooctameric axle, the circular permutation version of the D8 axle; For biolayer interferometry it was Avi-tagged and biotinylated; also called C8 axle
T2 chain: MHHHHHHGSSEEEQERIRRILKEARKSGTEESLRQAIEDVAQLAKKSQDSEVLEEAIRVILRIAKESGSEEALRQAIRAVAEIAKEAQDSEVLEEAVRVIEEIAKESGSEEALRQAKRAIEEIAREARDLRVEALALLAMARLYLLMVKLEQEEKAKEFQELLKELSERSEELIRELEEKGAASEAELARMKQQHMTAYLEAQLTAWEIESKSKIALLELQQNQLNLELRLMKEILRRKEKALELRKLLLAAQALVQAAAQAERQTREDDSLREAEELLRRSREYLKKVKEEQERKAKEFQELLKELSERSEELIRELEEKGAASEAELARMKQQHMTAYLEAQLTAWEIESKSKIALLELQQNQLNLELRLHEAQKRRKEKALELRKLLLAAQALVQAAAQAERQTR
Experimental: (§1) FIG. 13. Biolayer interferometry assays measuring in vitro assembly of ring and axle parts into a full rotary system. For each 6 designs, the equilibrium binding curves from biolayer interferometry binding assays is shown on the left and the corresponding Biolayer interferometry kinetic binding traces shown on the right. Biotinylated axles were immobilized on the tip and the binding in a solution of fre rings was measured. For both D3-C5 and D3-C3, a fresh ring solution was prepared by buffer exchange from citrate buffer to TBS with reducing agent, and immediately used for binding assays.
(§2) Protein samples were purified by SEC in 25 mM Tris pH 8.0, 25 mM NaCl and 1% glycerol; elution fractions corresponding to the protein were further concentrated using 3K protein concentrators (Millipore Sigma) and the flow-through was used as blank for buffer subtraction. SAXS Scattering measurements were performed at the SIBYLS 12.3.1 beamline at the Advanced Light Source. […] Collected data were processed using the SAXS FrameSlice™ online server and analysed using the ScÅtter software package(23). […]

[3] = molecular target: T3, C5C3_3250_Axle (C5-C3); test: as above
T3 construct: C5 homopentameric axle; For biolayer interferometry it was Avi-tagged and biotinylated; also called C5 axle
T3 chain: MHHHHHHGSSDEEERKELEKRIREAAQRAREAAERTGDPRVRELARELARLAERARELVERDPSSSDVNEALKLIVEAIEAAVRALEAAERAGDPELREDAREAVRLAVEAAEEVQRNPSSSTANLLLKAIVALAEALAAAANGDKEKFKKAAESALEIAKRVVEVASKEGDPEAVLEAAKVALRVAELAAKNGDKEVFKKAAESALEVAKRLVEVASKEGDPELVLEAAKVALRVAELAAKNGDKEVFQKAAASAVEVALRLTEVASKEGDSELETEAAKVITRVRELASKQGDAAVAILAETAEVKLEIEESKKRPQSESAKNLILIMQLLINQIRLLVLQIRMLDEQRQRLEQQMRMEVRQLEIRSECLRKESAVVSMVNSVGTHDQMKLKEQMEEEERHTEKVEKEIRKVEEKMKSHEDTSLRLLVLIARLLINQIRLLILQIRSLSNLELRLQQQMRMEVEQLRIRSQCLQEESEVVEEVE
Experimental: as §1, §2

[4] = molecular target: T4, 54.7_112_Axle; test: biolayer interferometry, biotinylated axle on streptavidin tips, ring in solution
T4 construct: Axle of a C3-C3 design (C3 homotrimer); It carries no His tag in the bicistronic pull-down; For biolayer interferometry it was Avi-tagged and biotinylated; also called C3-C3 design 54.7.112
T4 chain: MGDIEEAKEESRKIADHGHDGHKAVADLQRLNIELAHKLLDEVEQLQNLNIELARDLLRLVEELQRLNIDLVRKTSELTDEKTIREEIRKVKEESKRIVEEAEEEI
Experimental: as §1
Biolayer interferometry experiments were performed on an OctetRED96 BLI system (ForteBio, Menlo Park, CA). Enzymatic protein biotinylation was performed on SEC purified Avi-tagged proteins prior to the assay. The BirA500 (Avidity, LLC) biotinylation kit was used to biotinylate protein from the IMAC elution according to the manufacturer protocol. Reactions were incubated at 4C overnight and purified using size exclusion chromatography on a Superdex™ 6 10/300 Increase GL (GE Healthcare) in TBS buffer (25 mM Tris pH 8.0, 25 mM NaCl). Streptavidin coated biosensors were equilibrated for 10 minutes in Octet buffer (10 mM HEPES pH 7.4, 25 mM NaCl, 3 mM EDTA, 0.05% Surfactant P20) supplemented with 1 mg/ml Bovine Serum Albumin (SigmaAldrich). […]

[5] = molecular target: T5, C3D3_AR113_Axle (D3-C3); test: negative stain EM after pH-controlled, oxidoreductive assembly of axle and ring
T5 construct: De novo designed D3 homohexameric axle, a surface redesign of 1552_1na0C3_int2_11; For biolayer interferometry the axle was Avi-tagged and enzymatically biotinylated; also called D3 axle; designed D3 axle
T5 chain: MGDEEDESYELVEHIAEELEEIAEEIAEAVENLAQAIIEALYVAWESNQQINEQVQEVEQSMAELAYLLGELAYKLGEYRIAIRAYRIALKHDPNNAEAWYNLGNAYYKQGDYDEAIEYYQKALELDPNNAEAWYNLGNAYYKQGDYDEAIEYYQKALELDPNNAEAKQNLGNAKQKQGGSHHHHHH

B1: 119RC4_20_Ring (D8-C4) (designed binder)
chain: MGCDAIQAAAALGEAGISSNEILELLAAAAELGLDPDAIQAAAQLGEAGISSEEILELLRAAHELGLDPDAIAAAADLGQAGISSEEILELLRAAHELGLDPDAIQAAAALGEAGISSEEILELLRAAHELGLDPDAIQAAAQLGEAGISSEEILELLRAAHELGLDPDCIAAAADLGQAGISSSEITALLLAAAAIELAKRADDKDVREIVRDALELASRSTNDEVIRLALEAAVLAARSTDSDVLEIVKDALELAKQSTNEEVIKLALKAAVLAAKSTDEEVLEEVKEALRRAKESTDEEEIKEELRKAVEEAEGSHHHHHH
notes: C4 ring of four subunits, each fused to DHR20; two rings sit on each D8 axle; also called C4 ring
binding result [1]: binds

B2: C8D8_6_49_119RC4_20_Ring (C8-C4) (designed binder)
chain: MGCDAIQAAAALGEAGISSNEILELLAAAAELGLDPDAIQAAAQLGEAGISSEEILELLRAAHELGLDPDAIAAAADLGQAGISSEEILELLRAAHELGLDPDAIQAAAALGEAGISSEEILELLRAAHELGLDPDAIQAAAQLGEAGISSEEILELLRAAHELGLDPDCIAAAADLGQAGISSSEITALLLAAAAIELAKRADDKDVREIVRDALELASRSTNDEVIRLALEAAVLAARSTDSDVLEIVKDALELAKQSTNEEVIKLALKAAVLAAKSTDEEVLEEVKEALRRAKESTDEEEIKEELRKAVEEAEGSHHHHHH
notes: C4 ring of four subunits; also called C4 ring
binding result [2]: binds

B3: C5C3_3250_Ring (C5-C3) (designed binder)
chain: MGNRSLHANKLKTHLENLREHLKRLDEHAKQLRDILSEHPHDERVKDSIDLLEESVRIVKISIKIFEASVRALLWAINKEAEELAKSPDPADLERAVRLAAAVVRADPGSNLSKKALEIILRAAAELAKLPDPKALAAAAEAASRVQREQPGSNLAKAAQEIMRQASRAAEEAARRAKETLEKAEKDGDPRTALQAVMTVVEVAKALNIIATMAGSEEAQERAARVAAEAAELALRVFELAEKQGDPEVAHNARKLIEIVLHILLQILTQILETATKIIREANELLEKHRRSHHHDPKLVETHVELVKRHERLVRQHLKIALMHALAVLELAFPDAEAAKLASKAAKEAEELCKQSTDERLCDLLAELAALLIELAARYPDSEAAKLALKAALEAIELCKQSTDEELCEELVKLAQKLIELAKRYPDSEEAKRALKEAKELIEQCKESTDEDECRELVKRAEELIREAKEGSHHHHHH
notes: C3 homotrimeric ring; also called C3 ring
binding result [3]: binds

B4: 54.7_112_Ring (designed binder)
chain: MGVEELLLLARAAHHSGTTVEEAYKLALKLGISVKELLLLARAAHNSGTTVEEAYKLALKLGISVEELLLLAKAAHYSGTTVEEAYKLALKLGISVRELLLLAKAAHFSGTTVEEAYKLALKLGISVEELLLLARAAHHSGTTVEEAYKLALKLGISVKELLLLARAAHNSGTTVEEAYKLALKLGISVEELLLLAKAAHYSGTTVEEAYKLALKLGISVRELLLLAKAAHFSGTTVEEAYKLALKLGISVEELLLLARAAHHSGTTVEEAYKLALKLGISVKELLLLARAAHNSGTTVEEAYKLALKLGISVEELLLLAKAAHYSGTTVEEAYKLALKLGISVRELLLLAKAAHFSGTTVEEAYKLALKLGISGSHHHHHH
notes: also called C3-C3 design 54.7.112
binding result [4]: binds

B5: C3D3_AR113_Ring (D3-C3) (designed binder)
chain: MGQRSGHARQLKRHLHRLRRHLERLDKHAKHLRQILSERPQDERVKDSIDLLEESVRIVKISIKIFEASVRALLWAINKEAEELAKSPDPHDLHRAVRLARAVVQADPGSNLSKKALEIILRAAAELAKLPDPNALAAAARAASQVQREQPGSNLAKAAQEIMRQASRAAEEAARRAKETLEKAEKRGDPKTALQAVRTVVKVAAALNQIATMAGSEEAQERAARVAAEAAELALRVFELAEKQGDPHVARRARKLIQTVLQILLRILTQILETATKIIEEANKLLRKHRRSSRKDPKLVETHVELVKRHERLVRQHLKIALMHALAVLELAFPDAEAAKLASKAAKEAEELCKQSTDERLCDLLAELAALLIELAARYPDSEAAKLALKAALEAIELCKQSTDEELCEELVKLAQKLIELAKRYPDSEEAKRALKEAKELIEQCKESTDEDECRELVKRAEELIREAKEGSHHHHHH
notes: De novo designed C3 homotrimeric ring with disulfides and histidine networks at the subunit interfaces; also called C3 ring; ring of the D3-C3 rotor
binding result [5]: binds
